“Also recorded” adds a separate entry of the source.
How the values were obtained:
[1] = tested on: rheumatoid synovial cells; details: rheumatoid synovial cells upon treatment; cited from earlier work
Col4a3-/- mice [2] = details: cited from earlier work
[3] = tested on: kidneys of Col4a3-/- mice; assay: Treatment study: renal mRNA expression by qPCR; type: in vivo, mouse; details: 20 mg/kg IP 2x/week from 6 weeks for 2.5 weeks
Description: (§1) Col4a3^−/− (Col4a3^tm1Dec) mice were purchased from The Jackson Laboratory (https://www.jax.org/strain/002908). Mice were housed in temperatures of 21-24° C. with 40-70% humidity on a 12 h light/12 h dark cycle and provided with food and water ad libitum. For treatment study, Col4a3^−/− were administered 20 mg/kg of anti-IL11 (X203) or IgG isotype control (11E10) by intraperitoneal (IP) injection starting from 6 weeks of age twice a week for 2.5 weeks; wild-type littermates were used as controls. Mice were sacrificed for blood and kidney collection when they were 8.5-week-old. For lifespan study, IgG/X203 was administered to 6-week-old Col4a3^−/− (2×/week) until death ensued.
Total RNA was extracted from snap-frozen kidney tissues using Trizol (Invitrogen) followed by RNeasy column (Qiagen) purification. cDNAs were synthesized with iScript™ cDNA synthesis kit (Bio-Rad) according to manufacturer's instructions. Gene expression analysis was performed on duplicate samples with either TaqMan (Applied Biosystems) or fast SYBR green (Qiagen) technology using StepOnePlus™ (Applied Biosystem) over 40 cycles. Expression data were normalized to GAPDH mRNA expression and fold change was calculated using 2^−ΔΔct method. The sequences of specific TaqMan probes and SYBR green primers are available upon request.

Col4a3-/- mice [4] = assay: Treatment study: renal function by colorimetric assays (BUN, creatinine, urinary albumin:creatinine); type: in vivo, mouse; details: 20 mg/kg 2x/week from week 6; study end 8.5 weeks of age; vs IgG
Description: as §1
The levels of blood urea nitrogen (BUN) and creatinine in mouse serum were measured using Urea Assay Kit (ab83362, Abcam) and Creatinine Assay Kit (ab65340, Abcam), respectively. Urine albumin and creatinine levels were measured using Mouse Albumin ELISA kit (ab108792, Abcam) and Creatinine Assay Kit (ab204537, Abcam), respectively. All ELISA and colorimetric assays were performed according to the manufacturer's protocol.

Col4a3-/- mice [5] = assay: Lifespan study in Col4a3-/- mice (Example 2); type: in vivo, mouse; details: 20 mg/kg 2x/week from 6 weeks of age until death
Description: as §1
Statistical analyses were performed using GraphPad Prism software (version 8). Statistical significance between control and experimental groups were analysed by twosided Student's t tests or by one-way ANOVA as indicated in the figure legends. P values were corrected for multiple testing according to Tukey when several conditions were compared to each other within one experiment. Comparison analysis for two parameters from two different groups were performed by two-way ANOVA. Survival curves were analyzed by Gehan-Breslow-Wilcoxon test. The criterion for statistical significance was P<0.05.

[6] = tested on: mice homozygous for the Col4a3tm1Dec mutation; assay: Survival in mouse model of Alport syndrome (Example 1); type: in vivo; details: 20 mg/kg intraperitoneal, biweekly, from 6 weeks of age until mortality
From the text: 129-Col4a3^tm1Dec/J mice were obtained from The Jackson Laboratory (Stock No:002908; COL4A3 KO). The mice comprise the Co/4a3^tm1Dec mutation described e.g. in Cosgrove et al., Genes Dev. (1996) 10:2981-2992, which is hereby incorporated by reference in its entirety. 129-Col4a3^tm1Dec/J mice comprise a targeted mutation to Col4a3, resulting in progressive glomerulonephritis with microhematuria and proteinuria, and mice homozygous for the mutation typically die at about 8.5 weeks.
From 6 weeks of age, mice homozygous for the Co/4a3^tm1Dec mutation were administered biweekly by intraperitoneal injection of 20 mg/kg of Enx203, or an isotype-matched control antibody, until mortality.

Col4a3-/- mice [7] = assay: Treatment study in Col4a3-/- mice: body weight and kidney weight; type: in vivo, mouse
Description: as §1

[8] = tested on: kidneys of Col4a3-/- mice; assay: Treatment study: Wilms' Tumor 1 immunohistochemistry (podocytes); type: in vivo, mouse; details: 20 mg/kg IP 2x/week from 6 weeks for 2.5 weeks, vs IgG
Description: as §1
(§2) Kidneys were fixed in 10% neutral-buffered formalin (NBF), paraffinized, cut into 7 μm sections, incubated with primary antibodies overnight and visualized using an ImmPRESS HRP anti-rabbit IgG polymer detection kit (MP-7401, Vector Laboratories) with ImmPACT DAB Peroxidase Substrate (SK-4105, Vector Laboratories). Quantification of WT^+ve cells were performed in a blinded fashion from 4 images (200× field)/kidney (n=3-4 kidneys/group).

[9] = tested on: kidneys of Col4a3-/- mice; assay: Treatment study: kidney fibrosis (renal collagen content, Masson's Trichrome staining); type: in vivo, mouse; details: 20 mg/kg IP 2x/week from 6 weeks for 2.5 weeks; vs IgG
Description: as §1
Kidney tissues were fixed for 48 hours at RT in 10% neutral-buffered formalin (NBF), dehydrated, embedded in paraffin, and sectioned at 7 μm. Transverse kidney sections were then stained with Masson's Trichrome according to standard protocol. Images of the sections were captured by light microscopy and blue-stained fibrotic areas were semi-quantitatively determined with Image-J software (color deconvolution-Masson Trichrome) from the whole kidney area (100× field, n=4 kidneys/group). Treatment and genotypes were not disclosed to investigators performing the histology and generating semi-quantitative readouts.

[10] = tested on: kidneys of Col4a3-/- mice; assay: Treatment study: Western blot of kidney protein extracts; type: in vivo, mouse; details: 20 mg/kg IP 2x/week from 6 weeks for 2.5 weeks; vs IgG
Description: as §1
Western blot was carried out on total protein extracts from mouse kidney tissues. Kidneys were lysed in radioimmunoprecipitation assay (RIPA) buffer containing protease and phosphatase inhibitors (Thermo Scientifics), followed by centrifugation to clear the lysate. Protein concentrations were determined by Bradford assay (Bio-Rad). Protein lysates were separated by SDS-PAGE, transferred to PVDF membrane, and subjected to immunoblot analysis for various antibodies as outlined in the main text, figures, or and/or figure legends. Proteins were visualized using the ECL detection system (Pierce) with the appropriate secondary antibodies: anti-rabbit HRP or antimouse HRP.

[11] = biological target: T1, mouse IL11 receptor IL11RA1 (mouse, UniProt Q64385 24-432); assay: immunohistochemistry on mouse kidney sections (wild-type vs Il11ra1-/-)
T1 construct: whole, on cells; Endogenous protein detected in tissue sections; also called IL-11Rα
T1 sequence (looked up): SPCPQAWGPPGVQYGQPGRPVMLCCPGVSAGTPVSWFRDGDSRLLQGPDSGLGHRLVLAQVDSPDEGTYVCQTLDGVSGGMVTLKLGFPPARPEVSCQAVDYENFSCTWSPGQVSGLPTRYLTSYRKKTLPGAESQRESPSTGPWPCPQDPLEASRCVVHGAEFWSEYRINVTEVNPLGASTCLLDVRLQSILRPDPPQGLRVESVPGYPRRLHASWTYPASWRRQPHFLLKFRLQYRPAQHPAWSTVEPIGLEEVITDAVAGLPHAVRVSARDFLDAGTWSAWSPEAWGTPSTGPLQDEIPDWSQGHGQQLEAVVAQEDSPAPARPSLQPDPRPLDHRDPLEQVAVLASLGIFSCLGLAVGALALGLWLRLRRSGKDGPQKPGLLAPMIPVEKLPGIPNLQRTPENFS
From the text: FIGS. 2A to 2E. […] (2A-2C) Renal (2A) II11 RNA and (2B-2C) IL11 protein expression in wildtype and Col4a3^{-/-} mice. (2D) Immunohistochemistry staining of IL11RA with anti-IL11RA (X209) or IgG (11E10) as control on the kidneys of wild-type and II11ra1^{-/-} mice (scale bars, 20 μm). (2E) Comparison of II11ra1 and gp130 expression in mouse kidney cells based on single cell transcriptomic analysis by Park et. al.¹⁶. (2A) Data are shown as box-and-whisker with median (middle line), 25th-75th percentiles (box) and min-max values (whiskers), (2C) data are shown as mean±SD; 2-tailed Student's t-test. FC: fold change.
as §2

[12] = treatment of 4-week-old mice, prior to onset of proteinuria and tubulointerstitial fibrosis

Molecule: COc1ccc2c(c1)c(CC(=O)O)c(C)n2C(=O)c1ccc(Cl)cc1 [indomethacin, reference compound]
- expression of IL-11 [1]: reduction

Molecule: CCOC(=O)[C@H](CCc1ccccc1)N[C@@H](C)C(=O)N1[C@H](C(=O)O)C[C@@H]2CCC[C@@H]21 [ramipril]
- effect of delayed treatment (Col4a3-/- mice [2]; treatment delayed until after proteinuria was established (6-week-old mice)): ineffective; also recorded: no beneficial effect
- kidney dysfunction (Col4a3-/- mice [2]; [12]): attenuated
- lifespan (Col4a3-/- mice [2]; [12]): prolonged

B1: X203: mouse anti-mouse IL-11 IgG, neutralizing IL11 antibody; VH SEQ ID NO:22, VL SEQ ID NO:23 (antibody, V domains shown)
VH: EVQLQQSGPELVKPGASVKIPCKASGYTFTDYNMDWVKQSHGKSLEWIGDINPHNGGPIYNQKFTGKATLTVDKSSSTAYMELRSLTSEDTAVYYCARGELGHWYFDVWGTGTTVTVSS
VL: DIVLTQSPASLAVSLGQRATISCRASKSVSTSGYSYIHWYQQKPGQPPKLLIYLASNLDSGVPARFSGSGSGTDFTLNIHPVEEEDAATYYCQHSRDLPPTFGGGTKLEIK
- CC chemokine CcI2 mRNA ([3]; vs IgG): diminished
- CC chemokine CcI5 mRNA ([3]; vs IgG): diminished
- Tnfα expression ([3]; vs IgG): reduced
- proinflammatory interleukin II1b mRNA ([3]; vs IgG): diminished
- proinflammatory interleukin II6 mRNA ([3]; vs IgG): diminished
- renal level of Col1a1 gene expression ([3]; vs IgG): reduced
- renal level of Col1a2 gene expression ([3]; vs IgG): reduced
- renal level of Col3a1 gene expression ([3]; vs IgG): reduced
- renal level of Fn gene expression ([3]; vs IgG): reduced
- renal level of II11 gene expression ([3]; vs IgG): reduced
- renal level of Tgfb1 gene expression ([3]; vs IgG): reduced
- renal level of myofibroblast marker Acta2 gene expression ([3]; vs IgG): reduced
- tubule damage indicator Kim1 mRNA ([3]; vs IgG and wild-type): restored
- tubule damage indicator Ngal mRNA ([3]; vs IgG and wild-type): restored
- serum blood urea nitrogen (BUN) (Col4a3-/- mice [4]): markedly lowered
- serum creatinine (Cr) (Col4a3-/- mice [4]): markedly lowered
- urinary albumin:creatinine ratio (ACR) (Col4a3-/- mice [4]): markedly lowered
- median lifespan (Col4a3-/- mice [5]; IgG control 62.5 days, P=0.0015): 88.5 days
- extension of median life span (Col4a3-/- mice [5]; vs IgG control): 41.6%
- increase in survival relative to mice treated with isotype-matched control antibody [6]: up to 40%
- kidney mass (Col4a3-/- mice [7]; 20 mg/kg IP 2x/week from 6 weeks for 2.5 weeks, vs IgG): preserved
- total body weight loss, as percentage of starting body weight (Col4a3-/- mice [7]; 20 mg/kg IP 2x/week from 6 weeks of age for 2.5 weeks, end of study, IgG control 30%, P=0.0003): 17%
- Wilms' Tumor 1 (WT1) staining [8]: greater staining
- number of WT1-positive cells (podocytes) ([8]; blinded quantification): restored towards normal; also recorded: significant (P=0.0002) restoration
- kidney fibrosis by biochemical and histological assessments [9]: significantly less
- Caspase 3 activation [10]: reduced
- ERK phosphorylation in kidneys [10]: largely diminished
- Podocin protein level (immunoblotting) [10]: restored towards normal
- STAT3 phosphorylation in kidneys [10]: largely diminished
- Wilms' Tumor 1 protein level (immunoblotting) [10]: restored towards normal; also recorded: Preservation of podocytes
- alpha-smooth muscle actin (αSMA) protein level (reduction seen on transcript) [10]: confirmed at the protein level
- degree of TGFβ upregulation in the kidneys [10]: significantly reduced
- fibronectin protein level (reduction seen on transcript) [10]: confirmed at the protein level

B2: anti-IL11RA antibody X209 (antibody, V domains shown)
VH: QVQLQQPGAELVRPGSSVKLSCKASGYTFTNYWMHWLKQRPVQGLEWIGNIGPSDSKTHYNQKFKDKATLTVDKSSSTAYMQLNSLTSEDSAVYYCARGDYVLFTYWGQGTLVTVSA
VL: DIVLTQSPATLSLSPGERATLSCRASQSISNNLHWYQQKSHEAPRLLIKYASQSISGIPARFSGSGSGTDFTLSFSSLETEDFAVYFCQQSYSWPLTFGQGTKLEIK
notes: also called Enx209; anti-IL11RA (X209, Aldevron)
- binding result [11]: binds

B3: interferon-gamma: interferon-gamma (IFNγ) (protein, UniProt P01579 24-161, looked up)
Interferon gamma: QDPYVKEAENLKKYFNAGHSDVADNGTLFLGILKNWKEESDRKIMQSQIVSFYFKLFKNFKDDQSIQKSVETIKEDMNVKFFNSNKKKRDDFEKLTNYSVTDLNVQRKAIHELIQVMAELSPAAKTGKRKRSQMLFRG
- expression of IL-11 [1]: reduction

Source: patent US20230212279A1, “TREATMENT AND PREVENTION OF DISEASE CAUSED BY TYPE IV COLLAGEN DYSFUNCTION” (Singapore Health Services PTE, LTD., priority 2020, published 2023)
